{"source": "the nanobody polyreactivity screen of Harvey et al. (2022)", "data": [{"assay": "yeast display, Sf9 membrane polyspecificity reagent, FACS + sequencing; frameworks hold sequencing errors", "method_in_brief": "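A nanobody's polyreactivity label depends on the gate it was sorted from. Yeast display cells were stained with 10% biotinylated, detergent-solubilized Sf9 membrane reagent for 1 hour at 4 °C, enriched on streptavidin microbeads and sorted by FACS. The low and high (top ~1%) gates were set on anti-HA fluorescence for expression and streptavidin fluorescence for reagent binding.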", "values": [{"sequence": "QVQLVESGGGLVQAGGSLRLSCAASGRTFYRYTMGWYRQAPGTERELVAAISWSGGSTYYADSVKGRFTSSRDNAKNTVYLQMNSLKPEDTAVYYCAKATYWLYVQWYTYGYWGQGTQVTVSS", "polyreactivity (PSR sort gate)": "high polyreactivity"}, {"sequence": "QVQLVESGGGLVQAGGSLRLSCAASGRTFYRYVMGWYRQAPGKERELVATITNGGSTNYADSVKGRFTISRYNAKNTVYLQMNSLKPEDTAVYYCAADYPGYVGWPYSYEYYYWGQCTQVTVSS", "polyreactivity (PSR sort gate)": "low polyreactivity"}, {"sequence": "QVQLVESGGGLVQAGGSLRLSCAASGRTFYSNTMGWYRQAPGNERELVAAISRSGVGTYYADSVKGRFTISRDIAKNSVYLHMNSLKPEDTAVYYCAALPTGKSGYLYDYWGQGTQVTVSS", "polyreactivity (PSR sort gate)": "high polyreactivity"}, {"sequence": "QVQLVESGGGLVQAGGSLRLSCAASGRTFYSYAMGWYRPAPGKERELVAAINSGGDTYYADSVKGRFTISRDNAKNTVYLQMNSLKPEDTAVYYCAADYYWEMDSWGQGTQVTVSS", "polyreactivity (PSR sort gate)": "low polyreactivity"}, {"sequence": "QVQLVESGGGLVQAGGSLRLSCAASGRTFYSYAMGWYRQAPGKERELVAAITWRASTYYADSVKGRFTISRDNAKNTVYLQMNSLKPEDTAVYYCAVRDYRPRYYTFLYNSPYDYWGQGTQVTVSS", "polyreactivity (PSR sort gate)": "high polyreactivity"}, {"sequence": "QVQLVESGGGLVQAGGSLRLSCAASGRTFYSYAMGWYRQAPGKERELVAGITWSGTSTYYADSVKGRFTISRDNAKNTVYLQMNSLKPEDTAVYYCAAATLYSRYDYWGQGSQVTVSS", "polyreactivity (PSR sort gate)": "low polyreactivity"}, {"sequence": "QVQLVESGGGLVQAGGSLRLSCAASGRTFYSYTMGWYRQAPGKERELVAAINRGGSTYYADSVKGRFTISRDNAKNTVYLQMNSLYPVDNAVYYCAVGYAHSSNRRYYYKQTHGYWGQGTQVTVSS", "polyreactivity (PSR sort gate)": "low polyreactivity"}, {"sequence": "QVQLVESGGGLVQAGGSLRLSCAASGRTFYSYVMGWYRQAPGKERELVAAISGRGVSTYYADSVKGRFTISRDNAKNTVYLQMNSLKPEDTAVYYCAAETVHGSADFDYWGQGTQVTVSS", "polyreactivity (PSR sort gate)": "low polyreactivity"}, {"sequence": "QVQLVESGGGLVQAGGSLRLSCAASGRTFYTNAMGRYRQAPGKERELVAAISRGGGRTYYADSVKGRFTISRDNAKNTVYLQMNSLKPEDTAVYYCAASPYQGQGREYYYWGQGTQVTVSS", "polyreactivity (PSR sort gate)": "high polyreactivity"}, {"sequence": "QVQLVESGGGLVQAGGSLRLSCAASGRTFYTNAMGWYRQAPGKERELVAAISRGGGRTYYADSVKGRFTISRDNAKNTVYLQMNSLKPEDTAVYYCAASPYQGQGREYYYWGQGTQVTVSS", "polyreactivity (PSR sort gate)": "high polyreactivity"}, {"sequence": "QVQLVESGGGLVQAGGSLRLSCAASGRTFYTNAMGWYRQAPGKERELVASISGSGGSTYYADSVKGRFTISRDNAKNTVYLQMNSLKPEDTAVYYCAADPAPTVEFGKYDYWGQGTQVTVSS", "polyreactivity (PSR sort gate)": "low polyreactivity"}, {"sequence": "QVQLVESGGGLVQAGGSLRLSCAASGRTFYTYAMGLYRQAPGNERELVATITSGGSTYYADSVKGRFTISRDNAKNTVYLQMNSLKPEDTAVYYCARRRRESRQDGDYWVQGTQVTVSS", "polyreactivity (PSR sort gate)": "high polyreactivity"}, {"sequence": "QVQLVESGGGLVQAGGSLRLSCAASGRTFYTYAMGWYRQAPGKERELVAAISSSGSTYYADSVKGRFTISRDNAKNTVYLQMNSLKPEDTAVYYCNARTSRYRRGGDSWGQGTQVTVSS", "polyreactivity (PSR sort gate)": "high polyreactivity"}, {"sequence": "QVQLVESGGGLVQAGGSLRLSCAASGRTFYTYAMGWYRQAPGKESELVATIRWSGGSTRYADSVKGRFTISRDYAKNTVYLQMNSLKPEDTAVYYCAADNYYRRKYKYDYWGQGNQVTVSS", "polyreactivity (PSR sort gate)": "high polyreactivity"}, {"sequence": "QVQLVESGGGLVQAGGSLRLSCAASGRTFYTYTMGWYRQAPGKERELVAAISKSGTSTYYADSVKGRFTISRDNAKNTVYLQMNSLKPEDTAVYYCAARAYYARFLMGYWGQGTQVTVSS", "polyreactivity (PSR sort gate)": "high polyreactivity"}, {"sequence": "QVQLVESGGGLVQAGGSLRLSCAASGRTFYTYVMGWYRQAPGKEREFVAAITYSGGSTYYADSVKGRFTISRDNAKNTVYLQMNSLKPEDTAVYYCNAEWTYSEWYGQYLEFDYWGQGTQVTVSS", "polyreactivity (PSR sort gate)": "high polyreactivity"}, {"sequence": "QVQLVESGGGLVQAGGSLRLSCAASGRTFYVNAMGWYRQAPGKEMELVAAITNGGRTNYADSVKGRFTISRDNAKNTVYLQMNSLKPEDTAVYYCNKVSLRTQSAQFHYWGQGTQVTVSS", "polyreactivity (PSR sort gate)": "high polyreactivity"}, {"sequence": "QVQLVESGGGLVQAGGSLRLSCAASGRTFYVYAMGWYRQAPGKERELVAAISADGGRTYYADSVKGRFTISRDNAKNTVYLQMNSLKPEDTAVYYCAAWRHTLGDYWGQGTQVNVSS", "polyreactivity (PSR sort gate)": "high polyreactivity"}, {"sequence": "QVQLVESGGGLVQAGGSLRLSCAASGRTFYVYAMGWYRQAPGKERELVAAISWSGGSTYYADSVKGRFTISRDNAKNTVYLQMNSLKPEDTAVYYCAAQTYQRHVVAYDYWGQGTQVTVSS", "polyreactivity (PSR sort gate)": "low polyreactivity"}, {"sequence": "QVQLVESGGGLVQAGGSLRLSCAASGRTFYVYAMGWYRQAPGKERELVAAITSGGRTYYADSVKGRFTISRDNAKNTVYLQMNSLKPEDTAVYYCAVGNGLSRYVYGDYDYWGQGTQVTVSS", "polyreactivity (PSR sort gate)": "high polyreactivity"}, {"sequence": "QVQLVESGGGLVQAGGSLRLSCAASGRTFYVYTMGWYRQAPGKERELVAAITSGGSTNYADSVKGRFTISRDNAKNTVYLQMNSLKPEDTAVYYCAARVSTVFKRYYYCGQGTQVTVSS", "polyreactivity (PSR sort gate)": "high polyreactivity"}, {"sequence": "QVQLVESGGGLVQAGGSLRLSCAASGRTFYWNAMGWYRQAPGKEREFVAAITNTAGSTYYADSVKGRFTISRDNAKNTVYLQMNSLNPEDTAVYYCAKSGNGGYRTYLRDYWGQGTQVTVSS", "polyreactivity (PSR sort gate)": "low polyreactivity"}, {"sequence": "QVQLVESGGGLVQAGGSLRLSCAASGRTFYWNTMGWYRQAPGKERELVAAINYSGGSTYYADSVKGRFTISRDNAKNTVYLQMNSLKPEDTAVYYCAAYFHGYKSLHRARSEYNYWGQGTQVNVSS", "polyreactivity (PSR sort gate)": "high polyreactivity"}, {"sequence": "QVQLVESGGGLVQAGGSLRLSCAASGRTFYWYVMGWYRQAPGKERELVATITSGGSSNYADSVKGRFTISRDNAKNTVYLQRNSLKPEDTAVYYCNRDRLVRYEAEYDYWGQGTQVTVSS", "polyreactivity (PSR sort gate)": "low polyreactivity"}, {"sequence": "QVQLVESGGGLVQAGGSLRLSCAASGRTFYYNAMGWYRQAPGKERELVAAISSRGGNTYYADSVKGRFTISRDNAKNTVYYQMNSLKPEDTAVYYCARRYPYPAYEYGYWGQGTQVTVSS", "polyreactivity (PSR sort gate)": "high polyreactivity"}, {"sequence": "QVQLVESGGGLVQAGGSLRLSCAASGRTFYYNAMGWYRQAPGKERELVAAISWSGGSTYYADSVKGRFTISRDNAKNTVYLQMNSLKPEDTAVYYCAADYEYSRAYGYDYWGQGTQVTVSL", "polyreactivity (PSR sort gate)": "low polyreactivity"}, {"sequence": "QVQLVESGGGLVQAGGSLRLSCAASGRTFYYNPMGWYRQAPGKERELVAAITQSGGRTYYADSVKGRFTISRDNAKNTVYVQMNSVKPEDSAVYYFYAVRPVRGYIYQGYNYWGQGTQVTVSS", "polyreactivity (PSR sort gate)": "high polyreactivity"}, {"sequence": "QVQLVESGGGLVQAGGSLRLSCAASGRTFYYNTKGWYRQAPGKERELVASISGSGGRTYFADSVKGRFTISRDTAKNTVYLQMNSLKPEDTAVYYCASSRARRSRYILDYWGQGTQVTVSS", "polyreactivity (PSR sort gate)": "high polyreactivity"}, {"sequence": "QVQLVESGGGLVQAGGSLRLSCAASGRTFYYNTMGWYRQAPGKERELVAALSSRGGTTSYADSVKGRFTISRDNAKNSVYLQMNSLKPEDTAVYYCNAETYRRGSYDYWGQGTQVTVSS", "polyreactivity (PSR sort gate)": "high polyreactivity"}, {"sequence": "QVQLVESGGGLVQAGGSLRLSCAASGRTFYYNTMGWYRQAPGKERELVATISRIGGSTYYADSVKGRFTISRDNAKNTVYLQMNSLKPEDTAVYYCAKGRSLNGRPPVVYWQLFYYWGQGTQVTVSS", "polyreactivity (PSR sort gate)": "high polyreactivity"}, {"sequence": "QVQLVESGGGLVQAGGSLRLSCAASGRTFYYNTMGWYRQAPGKERELVATITSSGGRTYYADSVKGRFTISRDYAKNTVYLQMNSLKPEDTAVYYCNAALSRAFKHSTGYDYWGQGTQVTVSS", "polyreactivity (PSR sort gate)": "low polyreactivity"}, {"sequence": "QVQLVESGGGLVQAGGSLRLSCAASGRTFYYYALGWDRQAPAKERELVAAIRWRGGRTYADSVKGRFTISRDNAKNTVYVQMNSLKPEDTAVYYCAVESFYRHASLYDYWGQGTQVTVSS", "polyreactivity (PSR sort gate)": "high polyreactivity"}, {"sequence": "QVQLVESGGGLVQAGGSLRLSCAASGRTFYYYAMGWYRQAPGKERELVAAISWSGGRTYYADSVKGRFTISRDNAKNTFYLQMNSMNPEDTAVYYCAADKYYSEFDYWGQGTQVTVSS", "polyreactivity (PSR sort gate)": "low polyreactivity"}, {"sequence": "QVQLVESGGGLVQAGGSLRLSCAASGRTFYYYAMGWYRQAPGKERELVAGITATGSSTYYADSVKGRFTISRDNAKNTVYLQMNSLKPEDTAVYYCAADRYTTYSGQWSYPYDYWGQGTQVTVSS", "polyreactivity (PSR sort gate)": "low polyreactivity"}, {"sequence": "QVQLVESGGGLVQAGGSLRLSCAASGRTFYYYAMGWYRQAPGKERELVASITFSGGRTYYADSVKGRFTISRDNAKNTVYLQMNSLKPEDTAVYYFARPYYGRYYPNYGVTGVDYWGQGTQVTVSS", "polyreactivity (PSR sort gate)": "high polyreactivity"}, {"sequence": "QVQLVESGGGLVQAGGSLRLSCAASGRTFYYYAMGWYRQAPGKERELVAVIRSSGDSTYYADSVKGRFTISRDNAKNTVYLQMNSLKPEDTAVYYCNADDWAYGMDYWGQGTQVTVSS", "polyreactivity (PSR sort gate)": "low polyreactivity"}, {"sequence": "QVQLVESGGGLVQAGGSLRLSCAASGRTFYYYTMGWSRQAPGKERELVAAITSVGSTSYADSVKGRFTISRANAKNTVYLQMNSPKPEATAVYYCAADYQYVWFYYWGQGTQVTVSS", "polyreactivity (PSR sort gate)": "high polyreactivity"}, {"sequence": "QVQLVESGGGLVQAGGSLRLSCAASGRTFYYYVMGWYRQAPGKERELVAAITKSTGSTYYADSVKGRFTISRDNAKNTVYLQMNSLKPEDTAVYYCAAAYWITTPYDYWGQGTQVTVSS", "polyreactivity (PSR sort gate)": "low polyreactivity"}, {"sequence": "QVQLVESGGGLVQAGGSLRLSCAASGRTGSYAMGWYRQAPGQERELVAAISRRGANTYYADSVKGRFTISRDNAKNTVYLQMNSLKPEVTAVYYCAVPHLYSRVEYDYWGQGSQVTVSS", "polyreactivity (PSR sort gate)": "high polyreactivity"}, {"sequence": "QVQLVESGGGLVQAGGSLRLSCAASGRTIDLNAMGWYRQAPGKERELVAAITSSGSTNYADSVKGRFTISRDNAKNTVYLQMNSLKPDDTAVYYCNKDPIYSAEYWVGSVGFDYWGQGTQVTVSS", "polyreactivity (PSR sort gate)": "low polyreactivity"}, {"sequence": "QVQLVESGGGLVQAGGSLRLSCAASGRTIDSNAMGWYRQAPGKERELVAAISSDGGSTYYADSVKGRFTISRDNAKNTVYLQMNSLKPEDTAVYYCNAYYGRFPYYADDYWGQGTQVTVSS", "polyreactivity (PSR sort gate)": "low polyreactivity"}, {"sequence": "QVQLVESGGGLVQAGGSLRLSCAASGRTIDYNGRGSYRQAPGKERELVAVISSSGGSPFYADSVKGRFTISRDNAKNTVYLQMNSLKPEDTAVYYCAADFIVAYTLHGSYDYWGQGTQVTVSS", "polyreactivity (PSR sort gate)": "low polyreactivity"}, {"sequence": "QVQLVESGGGLVQAGGSLRLSCAASGRTIFRYAMGWYTQAPGKERDLVAAITWSGGTTYYADSVKGRFTISRDNAKNTVYLQMNSLKPEDTAVYYCNARGLWYRRVVTYGYWGQGTQVTVSS", "polyreactivity (PSR sort gate)": "high polyreactivity"}]}]}
